Measurements published in PMC3285688, “Active Site Mutations Change the Cleavage Specificity of Neprilysin” (PLoS ONE, 2012).
Values joined by “and” are separate entries in the source; they are usually repeats but may differ in a detail not shown here. Identical values can stand only once. “Also recorded” adds a separate entry of the source.

Assays:
Type in all cases: biochemical
[1] = tested on: insulin B chain; assay: Rate of insulin B chain hydrolysis (HPLC)
Experimental: (§1) Cleavage of physiological peptides was measured via reverse phase high performance liquid chromatography (HPLC) following incubation of the purified NEP or its mutants with 15 µM insulin B chain (Sigma Aldrich), 24 µM Aß1–40 (Anaspec), or 64 µM leu-ENK (Sigma) in 100 µL of 20 mM MES, pH 6.5, at 37°C. Reactions were run in triplicate. HPLC was carried out in a Vydac C4 column using a linear gradient from 0.1% trifluoroacetic acid (TFA) in 95% water, 5% acetonitrile to 0.1% TFA in 50% acetonitrile/water at a flow rate of 1 mL/min. Peptides and hydrolysis products were detected at 214 nm and quantified by measuring peak areas. Peptides obtained from HPLC were analyzed on an Applied Biosystems 4800 MALDI TOF/TOF Proteomics Analyzer at the University of Kentucky Proteomics core. This facility is supported in part by grant P20RR020171 from the NIH/NCRR.
(§2) Statistical analysis comparing wild-type NEP and its mutants was performed with Prism 4 software using a two-tailed paired t-test with a 95% confidence interval.

[2] = tested on: insulin B chain; assay: Dual substrate assay: insulin B chain hydrolysis in presence of leu-ENK; conditions: 15 µM insulin B chain and 64 µM leu-ENK together, 37°C, 20 mM MES buffer, pH 6.5
Experimental: (§3) The rate of cleavage of a substrate mixture is determined by both the kcat for that substrate as well by the affinity for the substrate. […] This is expected, given that each peptide acts as a competitive inhibitor of the other. […] That is the ratio for leu-ENK/insulin B chain cleavage is 3 for NEP^S546E compared to 6 for wild-type NEP.
as §1

[3] = tested on: Aß1–40; assay: Time course of product peak accumulation from Aß1–40
Experimental: Similar to the analysis conducted with insulin B chain, the linear rate of product accumulation was determined for each peak and normalized to the amount of protein in the reaction, Table 7 . Unlike the hydrolysis of insulin B chain, the hydrolysis of Aß1–40, even at the earliest time points, produced products resulting from multiple cleavage events. Out of the 12 identified product peaks, only 3 could be produced by a single cleavage. Rates for all cleavages were calculated and are given in Figure 4, B–D , but only the three putative primary cleavage sites can be compared.
as §1

[4] = tested on: leu-ENK; assay: Dual substrate assay: leu-ENK hydrolysis in presence of insulin B chain; conditions: 15 µM insulin B chain and 64 µM leu-ENK together, 37°C, 20 mM MES buffer, pH 6.5
Experimental: as §3, §1

[5] = Hydrolysis of synthetic substrate Glut-Ala-Ala-Phe-MNA by NEP and mutants (fluorogenic)
Experimental: Reactions of 400 µl contained 100 µM Glut-Ala-Ala-Phe-MNA, 1 µg of aminopeptidase and 15 to 100 ng of NEP or mutant NEP depending on their activity in 20 mM MES buffer, pH 6.5. Activity was monitored with a Spectra Max Gemini XS plate reader using an excitation wavelength of 340 nm and an emission wavelength of 425 nm.
(§4) Kinetic constants for NEP and its mutants were obtained using the assay conditions noted above, but with Glut-Ala-Ala-Phe-MNA varied from 20 to 500 µM. Typically 12 data points were obtained. The data were fit to the Michaelis-Menten equation using Prism4 software. The Ki for insulin B chain was obtained by measuring the rate of Glut-Ala-Ala-Phe-MNA hydrolysis in the presence of varying concentrations of insulin B chain from 1 to 40 µM. Data were fit to a Dixon plot (1/rate versus [insulin B chain]) using Prism4 software and the ID50 obtained as the –x intercept, where ID50 corresponds to the concentration of insulin producing 50% inhibition. The actual Ki was obtained from the equation: ID50 = Ki (1+ [Glut-Ala-Ala-Phe-MNA]/KmGlut-Ala-Ala-Phe-MNA), [33].

[6] = tested on: leu-ENK and insulin B chain; assay: Dual substrate assay: substrate preference leu-ENK versus insulin B chain
Experimental: as §3, §1

[7] = tested on: leu-ENK; assay: Rate of leu-ENK hydrolysis (HPLC)
Experimental: as §1, §2

[8] = biological target: insulin B chain; assay: Insulin B chain as alternate substrate (competitive) inhibitor of Glut-Ala-Ala-Phe-MNA hydrolysis (Dixon plot); conditions: insulin B chain 1 to 40 µM as competitive inhibitor of Glut-Ala-Ala-Phe-MNA hydrolysis by the enzyme form, 37°C, 20 mM MES, pH 6.5, ID50 converted to Ki
Experimental: as §4

[9] = tested on: Aß1–40; assay: Rate of Aß1–40 hydrolysis (HPLC)
Experimental: as §1, §2

[10] = tested on: insulin B chain; assay: Time course of product peak accumulation from insulin B chain
From the text: As a representative of the NEP^F563 and NEP^S546 mutants, we compared the cleavage profile of NEP^F563L and NEP^S546E to that of NEP using time course experiments, Figure 2 . By adjusting the amount of NEP mutant used, the rate of hydrolysis of insulin B chain by all NEP forms was virtually identical. […] Since rates were based on peak areas measured at 214 nm, which in turn is dependent on both the number of peptide bonds and the number of aromatic residues within a given peptide, only the observed rates of change for a particular peptide product can be compared between enzyme forms. A comparison of the rate of change of different peaks within the same enzyme form or between enzyme forms is not valid under our conditions of analysis.
as §1

[11] = 24 µM Aß1–40, 37°C, 20 mM MES, pH 6.5, 0-360 min, HPLC peak area, linear phase
[12] = 15 µM insulin B chain, 37°C, 20 mM MES, pH 6.5, 0-180 min, HPLC peak area 214 nm, linear phase

B1: NEP^F563L: neprilysin active site mutant, Phe563 to leucine (protein, UniProt P08473 2-750, looked up, variant F563L)
Neprilysin: GKSESQMDITDINTPKPKKKQRWTPLEISLSVLVLLLTIIAVTMIALYATYDDGICKSSDCIKSAARLIQNMDATTEPCTDFFKYACGGWLKRNVIPETSSRYGNFDILRDELEVVLKDVLQEPKTEDIVAVQKAKALYRSCINESAIDSRGGEPLLKLLPDIYGWPVATENWEQKYGASWTAEKAIAQLNSKYGKKVLINLFVGTDDKNSVNHVIHIDQPRLGLPSRDYYECTGIYKEACTAYVDFMISVARLIRQEERLPIDENQLALEMNKVMELEKEIANATAKPEDRNDPMLLYNKMTLAQIQNNFSLEINGKPFSWLNFTNEIMSTVNISITNEEDVVVYAPEYLTKLKPILTKYSARDLQNLMSWRFIMDLVSSLSRTYKESRNAFRKALYGTTSETATWRRCANYVNGNMENAVGRLYVEAAFAGESKHVVEDLIAQIREVFIQTLDDLTWMDAETKKRAEEKALAIKERIGYPDDIVSNDNKLNNEYLELNYKEDEYFENIIQNLKFSQSKQLKKLREKVDKDEWISGAAVVNAFYSSGRNQIVFPAGILQPPLFSAQQSNSLNYGGIGMVIGHEITHGFDDNGRNFNKDGDLVDWWTQQSASNFKEQSQCMVYQYGNFSWDLAGGQHLNGINTLGENIADNGGLGQAYRAYQNYIKKNGEEKLLPGLDLNHKQLFFLNFAQVWCGTYRPEYAVNSIKTDVHSPGNFRIIGTLQNSAEFSEAFHCRKNSYMNPEKKCRVW
Rate of hydrolysis of Insulin B Chain ([1]; 15 µM insulin B chain, 37°C, 20 mM MES buffer, pH 6.5, disappearance of substrate by HPLC, at least triplicate): 1.17 ± 0.18 pmol/min/ng | Insulin B chain hydrolysis rate relative to NEP ([1]; overall rate, 15 µM insulin B chain): 1.4 times | Preference for insulin B chain over Aß1–40 ([1]; relative to NEP, from separate single-substrate rates): greater than 2 fold | Insulin B Chain hydrolysis rate, dual substrate assay [2]: 0.19 ± 0.03 pmol/min/ng | Accumulation rate of peak Aß 1–9 (single cleavage G^9-Y^10) [3, 11]: 0 Δarea/min/ng | Accumulation rate of peak Aß 1–16 (single cleavage K^16-L^17) [3, 11]: 17 Δarea/min/ng | Accumulation rate of peak Aß 1–17 (single cleavage L^17-V^18) [3, 11]: 22 Δarea/min/ng | Accumulation rate of peak Aß 4–9 (dual cleavages A^3-F^4, G^9-Y^10) [3, 11]: 5 Δarea/min/ng | Accumulation rate of peak Aß 4–16 (dual cleavages A^3-F^4, K^16-L^17) [3, 11]: 5 Δarea/min/ng | Accumulation rate of peak Aß 4–17 (dual cleavages A^3-F^4, L^17-V^18) [3, 11]: 12 Δarea/min/ng | Accumulation rate of peak Aß 10–16 (dual cleavages G^9-Y^10, K^16-L^17) [3, 11]: 11 Δarea/min/ng | Accumulation rate of peak Aß 10–17 (dual cleavages G^9-Y^10, L^17-V^18) [3, 11]: 8 Δarea/min/ng | Accumulation rate of peak Aß 12–17 (dual cleavages E^11-V^12, L^17-V^18) [3, 11]: 1 Δarea/min/ng | Accumulation rate of peak Aß 20–28 (dual cleavages F^19-F^20, K^28-G^29) [3, 11]: 5 Δarea/min/ng | Accumulation rate of peak Aß 20–29 (dual cleavages F^19-F^20, G^29-A^30) [3, 11]: 6 Δarea/min/ng | Accumulation rate of peak Aß 20–30 (dual cleavages F^19-F^20, A^30-I^31) [3, 11]: 26 Δarea/min/ng | Presence of wild-type product peaks from Aß1–40 (in words) ([3]; HPLC profile at ∼30% hydrolysis, Aß1–9 peak in case of NEP^F563L): the peak corresponding to Aß1–9 was not present | Cleavage at L^17-V^18 in Aß1–40 relative to wild-type NEP ([3]; product Aß1–17): 25% | Cleavage of the G^9-Y^10 bond in Aß1–40 (in words) ([3]; versus NEP, inferred from Aß1–9, Aß10–17): much slower rate; also recorded: appears to cleave the G^9-Y^10 bond | leu-ENK hydrolysis rate, dual substrate assay [4]: 0.97 ± 0.06 pmol/min/ng | leu-ENK hydrolysis, activity relative to the uninhibited value ([4]; numbers in parenthesis): 0.62 | Activity relative to wild-type enzyme (Figure S2 legend, in words) [5]: same activity as wild-type enzyme | Specific Activity (Glut-Ala-Ala-Phe-MNA cleavage) ([5]; 100 µM Glut-Ala-Ala-Phe-MNA, 37°C, 20 mM MES buffer, pH 6.5, fluorescence ex 340 nm, em 425 nm): 44 pmol/min/ng and 43.6 ± 0.1 pmol/min/ng | Km ([5]; Glut-Ala-Ala-Phe-MNA 20 to 500 µM, 37°C, 20 mM MES buffer, pH 6.5, Michaelis-Menten fit): 81 ± 11 µM | Substrate preference leu-ENK/insulin B chain (in words) ([6]; dual substrate assay, versus wild-type): no change in overall substrate preference | Ratio leu-ENK insulin B chain ([6]; ratio of rates, 15 µM insulin B chain and 64 µM leu-ENK together): 5.1 | Rate of hydrolysis of leu-ENK ([7]; 64 µM leu-ENK, 37°C, 20 mM MES buffer, pH 6.5, disappearance of substrate by HPLC, at least triplicate): 1.57 ± 0.32 pmol/min/ng | leu-ENK cleavage rate relative to wild-type NEP rate ([7]; 64 µM leu-ENK, pH 6.5, 37°C): approximately 80% | Activity for both Glut-Ala-Ala-Phe-MNA and leu-ENK (in words) ([7]; versus wild-type): near wild-type levels of activity | Ki [8]: 1500 ± 300 nM | Rate of hydrolysis of Aß1–40 ([9]; 24 µM Aß1–40, 37°C, 20 mM MES buffer, pH 6.5, disappearance of substrate by HPLC, at least triplicate): 116 ± 4 fmol/min/ng | Aß1–40 hydrolysis rate relative to wild-type NEP ([9]; overall rate as fraction/times of wild-type rate, 24 µM Aß1–40): nearly half the rate of the wild-type enzyme | Rate of accumulation of peak 1–5 (single cleavage H^5-L^6) [10, 12]: 83 Δarea/min/ng | Rate of accumulation of peak 1–10 (single cleavage H^10-L^11) [10, 12]: 135 Δarea/min/ng | Rate of accumulation of peak 1–11 (single cleavage L^11-V^12) [10, 12]: 16 Δarea/min/ng | Rate of accumulation of peak 1–14 (single cleavage A^14-L^15) [10, 12]: 266 Δarea/min/ng | Rate of accumulation of peak 1–16 (single cleavage Y^16-L^17) [10, 12]: 25 Δarea/min/ng | Rate of accumulation of peak 15–23 (two cleavages A^14-L^15, G^23-F^24) [10, 12]: 64 Δarea/min/ng | Rate of accumulation of peak 15–30 (single cleavage A^14-L^15) [10, 12]: 282 Δarea/min/ng | Rate of accumulation of peak 17–24 (two cleavages Y^16-L^17, F^24-F^25) [10, 12]: 25 Δarea/min/ng | Rate of accumulation of peak 17–30 (single cleavage Y^16-L^17) [10, 12]: 112 Δarea/min/ng | Rate of accumulation of peak 24–30 (single cleavage G^23-F^24) [10, 12]: 290 Δarea/min/ng | Unique or missing cleavage sites in insulin B chain versus NEP ([10]; 30% substrate hydrolysis, HPLC profile): no unique or missing cleavage sites | Cleavage at A^14-L^15 in insulin B chain relative to NEP ([10]; times the NEP rate): ~1.4 | Cleavage at H^5-L^6 in insulin B chain relative to NEP ([10]; times the NEP rate): ~1.4 | Cleavage at H^10-L^11 in insulin B chain relative to NEP ([10]; times the NEP rate): 0.8 | Cleavage at L^11-V^12 in insulin B chain relative to NEP ([10]; times the NEP rate): 0.2 | Cleavage at Y^16-L^17 in insulin B chain relative to NEP ([10]; times the NEP rate): ~0.7
